In patent US9487562B2, “Stabilized polypeptides as regulators of RAB GTPase function” (President and Fellows of Harvard College, priority 2011, dated 2016):

Biological target: T1, GST-H6-RAB25 (Homo sapiens, UniProt P57735)
T1 construct: RAB25 (residues E7-Q180) was expressed with an N-terminal GST- and hexahistidine tag; made in house; host or cells: Escherichia coli BL21(DE3) pLysS
T1 sequence (P57735 7-180): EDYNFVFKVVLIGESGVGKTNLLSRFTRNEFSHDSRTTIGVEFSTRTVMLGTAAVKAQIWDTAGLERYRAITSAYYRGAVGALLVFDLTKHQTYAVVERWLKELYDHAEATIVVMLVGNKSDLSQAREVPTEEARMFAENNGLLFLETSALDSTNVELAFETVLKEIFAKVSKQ
Test: ALPHASCREEN competition assay (biotin-RFP14 / GST-H6-RAB25 complex)
Assay type: binding
Settings: competitor added to pre-formed biotin-RFP14/GST-H6-RAB25 complex
Excerpt: A nano-bead based […] assay (ALPHASCREEN®) was used to qualitatively assess protein binding (peptide-RAB or protein-RAB association) and quantitatively assess inhibitor ranking (competition assays). […] FIG. 13B schematizes the ALPHASCREEN® (binding) strategy. If an RFP (or FIP protein/peptide) conjugated to biotin (bound to a donor bead, in this case streptavidin) interacts with RAB conjugated to GST (bound to an acceptor bead, in this case, anti-GST), there is a proximity-dependent transfer of chemical energy, resulting in light production.
For competition assays, complexes consisting of biotin-FIP and GST-RAB proteins or biotin-RFP and GST-RAB peptides with free RFPs, unmodified peptides, and FIP proteins were incubated.
In FIGS. 13 and 14, the binding complex is pre-formed with Biotin-RFP14 and GST-H6-RAB25 (SEQ ID NO: 86). Soluble competitors were then added after an incubation time (30 min) across a dose range. These competitors are FIP3 (expressed protein), and Trp-labeled derivatives of RFP14, RFP16 and RFP17. After another incubation of 30 min the streptavidin donor beads and Ni-NTA acceptor beads are added and the luminescent signal is measured approximately 30 min later (total of ˜1.5 hr incubation time).

- competition for RAB25 binding (IC50): significantly higher IC50
B1: FIP3 protein: expressed FIP3 protein (652-756), soluble competitor in … (protein, UniProt O75154 652-756, looked up, fragment)
chain: QEYHSRARESELEQEVRRLKQDNRNLKEQNEELNGQIITLSIQGAKSLFSTAFSESLAAEISSVSRDELMEAIQKQEEINFRLQDYIDRIIVAIMETNPSILEVK
modifications: GST tag
